Molecular target: T1, HLA-A*02:01 (human)
T1 construct: MHC class I monomer made peptide-receptive by UV cleavage of a UV-sensitive ligand; also called peptide-receptive MHC molecules
Experiment: UV-ligand exchange ELISA (anti-β2m), peptide exchange yield grade
From the text: Candidate peptides for T cell based therapies according to the present invention were further tested for their MHC binding capacity (affinity). The individual peptide-MHC complexes were produced by UV-ligand exchange, where a UV-sensitive peptide is cleaved upon UV-irradiation, and exchanged with the peptide of interest as analyzed. Only peptide candidates that can effectively bind and stabilize the peptide-receptive MHC molecules prevent dissociation of the MHC complexes. To determine the yield of the exchange reaction, an ELISA was performed based on the detection of the light chain (β2m) of stabilized MHC complexes. The assay was performed as generally described in Rodenko et al. (Rodenko et al., 2006).
96 well MAXISorp plates (NUNC) were coated over night with 2ug/ml streptavidin in PBS at room temperature, washed 4× and blocked for1h at 37° C. in 2% BSA containing blocking buffer. Refolded HLA-A*02:01/MLA-001 monomers served as standards, covering the range of 15-500 ng/ml. Peptide-MHC monomers of the UV-exchange reaction were diluted 100 fold in blocking buffer. Samples were incubated for 1h at 37° C., washed four times, incubated with 2 ug/ml HRP conjugated anti-β2m for 1h at 37° C., washed again and detected with TMB solution that is stopped with […]. Absorption was measured at 450 nm. Candidate peptides that show a high exchange yield (preferably higher than 50%, most preferred higher than 75 %) are generally preferred for a generation and production of antibodies or fragments thereof, and/or T cell receptors or fragments thereof, as they show sufficient avidity to the MHC molecules and prevent dissociation of the MHC complexes.

B1: peptide VLFTDEGVPKFL (SEQ ID NO: 56) (peptide)
peptide: VLFTDEGVPKFL
For B1, the peptide exchange yield was 20 to 50%.

B2: peptide NLLEKENYL (SEQ ID NO: 57) (peptide)
peptide: NLLEKENYL
Binder B2 has a peptide exchange yield of 50 to 75%.

B3: peptide AMADKMDMSL (SEQ ID NO: 58) (peptide)
peptide: AMADKMDMSL
B3 showed a peptide exchange yield of 20 to 50%.

B4: peptide LLTDNWKL (SEQ ID NO: 59) (peptide)
peptide: LLTDNVVKL
In the case of B4, the peptide exchange yield is reported as 50 to 75%.

B5: peptide VLDEDEPRFL (SEQ ID NO: 60) (peptide)
peptide: VLDEDEPRFL
With B5 the peptide exchange yield was 20 to 50%.

B6: peptide KLLKLFQGV (SEQ ID NO: 61) (peptide)
peptide: KLLKLFQGV
For B6, the peptide exchange yield was 50 to 75%.

B7: peptide YLAPENGYL (SEQ ID NO: 62) (peptide)
peptide: YLAPENGYL
Binder B7 has a peptide exchange yield of 20 to 50%.

B8: peptide FLAELPGSLSL (SEQ ID NO: 6) (peptide)
peptide: FLAELPGSLSL
For B8, the peptide exchange yield was 50 to 75%.

B9: peptide KLFSILSTV (SEQ ID NO: 63) (peptide)
peptide: KLFSILSTV
For B9, the peptide exchange yield was 20 to 50%.

B10: peptide KTLGKLWRL (SEQ ID NO: 64) (peptide)
peptide: KTLGKLWRL
B10 showed a peptide exchange yield of 20 to 50%.

B11: peptide GLDDGPDFL (SEQ ID NO: 66) (peptide)
peptide: GLDDGPDFL
B11 was tested, and the peptide exchange yield was 20 to 50%.

B12: peptide SLNDLEKDVMLL (SEQ ID NO: 67) (peptide)
peptide: SLNDLEKDVMLL
For B12, the peptide exchange yield was 50 to 75%.

B13: peptide SILQFVHMV (SEQ ID NO: 68) (peptide)
peptide: SILQFVHMV
B13 gave a peptide exchange yield of 50 to 75%.

B14: peptide GMLNEAEGKAIKL (SEQ ID NO: 69) (peptide)
peptide: GMLNEAEGKAIKL
B14 gave a peptide exchange yield of 20 to 50%.

B15: peptide MISELEVRL (SEQ ID NO: 70) (peptide)
peptide: MISELEVRL
With B15 the peptide exchange yield was 50 to 75%.

B16: peptide RLWTEIPTAI (SEQ ID NO: 71) (peptide)
peptide: RLWTEIPTAI
Work on B16 yielded a peptide exchange yield of 50 to 75%.

B17: peptide YLLDYPNNLL (SEQ ID NO: 72) (peptide)
peptide: YLLDYPNNLL
Work on B17 yielded a peptide exchange yield of 50 to 75%.

B18: peptide YLFDIAVSM (SEQ ID NO: 73) (peptide)
peptide: YLFDIAVSM
B18 showed a peptide exchange yield of 50 to 75%.

B19: peptide YLTRHLAVL (SEQ ID NO: 7) (peptide)
peptide: YLTRHLAVL
Binder B19 has a peptide exchange yield of 20 to 50%.

B20: peptide YLMGFLHAV (SEQ ID NO: 74) (peptide)
peptide: YLMGFLHAV
B20 showed a peptide exchange yield of 50 to 75%.

B21: peptide EMIENIQSV (SEQ ID NO: 75) (peptide)
peptide: EMIENIQSV
In the case of B21, the peptide exchange yield is reported as 20 to 50%.

B22: peptide YLIGEKQHYL (SEQ ID NO: 76) (peptide)
peptide: YLIGEKQHYL
For B22, the peptide exchange yield was 50 to 75%.

B23: peptide SLLKRDFGA (SEQ ID NO: 77) (peptide)
peptide: SLLKRDFGA
B23 showed a peptide exchange yield of 20 to 50%.

B24: peptide ALDPELLLL (SEQ ID NO: 78) (peptide)
peptide: ALDPELLLL
Work on B24 yielded a peptide exchange yield of 20 to 50%.

B25: peptide SLAADQLLKL (SEQ ID NO: 79) (peptide)
peptide: SLAADQLLKL
B25 gave a peptide exchange yield of 20 to 50%.

B26: peptide … (SEQ ID NO: 80) (peptide)
peptide: QVDEVVDIMRV
notes: also called QVDEVVDIMRV
B26 showed a peptide exchange yield of 20 to 50%.

B27: peptide ALLSQQTHL (SEQ ID NO: 81) (peptide)
peptide: ALLSQQTHL
Work on B27 yielded a peptide exchange yield of 50 to 75%.

B28: peptide QLYEEPDTKL (SEQ ID NO: 82) (peptide)
peptide: QLYEEPDTKL
B28 showed a peptide exchange yield of 20 to 50%.

B29: peptide LTIEDGIFEV (SEQ ID NO: 83) (peptide)
peptide: LTIEDGIFEV
Binder B29 has a peptide exchange yield of 50 to 75%.

B30: peptide ALMLQGVDLL (SEQ ID NO: 8) (peptide)
peptide: ALMLQGVDLL
B30 gave a peptide exchange yield of 50 to 75%.

B31: peptide SMVEDITGLRL (SEQ ID NO: 84) (peptide)
peptide: SMVEDITGLRL
Work on B31 yielded a peptide exchange yield of 50 to 75%.

B32: peptide ILHDINSDGVL (SEQ ID NO: 85) (peptide)
peptide: ILHDINSDGVL
B32 showed a peptide exchange yield of 20 to 50%.

B33: peptide KVFPGKISV (SEQ ID NO: 86) (peptide)
peptide: KVFPGKISV
Binder B33 has a peptide exchange yield of 20 to 50%.

B34: peptide LLFDAPDLRL (SEQ ID NO: 87) (peptide)
peptide: LLFDAPDLRL
B34 gave a peptide exchange yield of 50 to 75%.

B35: peptide KLDIKVETV (SEQ ID NO: 88) (peptide)
peptide: KLDIKVETV
B35 showed a peptide exchange yield of no less than 75%.

B36: peptide SLIEYEFRV (SEQ ID NO: 89) (peptide)
peptide: SLIEYEFRV
B36 showed a peptide exchange yield of 50 to 75%.

B37: peptide GLLKPGLNVVL (SEQ ID NO: 90) (peptide)
peptide: GLLKPGLNVVL
notes: also called …
B37 showed a peptide exchange yield of 50 to 75%.

B38: peptide TVDVATPSV (SEQ ID NO: 91) (peptide)
peptide: TVDVATPSV
With B38 the peptide exchange yield was 50 to 75%.

B39: peptide WIDDTSAFV (SEQ ID NO: 92) (peptide)
peptide: WIDDTSAFV
B39 gave a peptide exchange yield of 50 to 75%.

B40: peptide SLQELRLLL (SEQ ID NO: 93) (peptide)
peptide: SLQELRLLL
In the case of B40, the peptide exchange yield is reported as no less than 75%.

B41: peptide ILDDHLSRV (SEQ ID NO: 9) (peptide)
peptide: ILDDHLSRV
With B41 the peptide exchange yield was 20 to 50%.

B42: peptide KSMDIVLTV (SEQ ID NO: 94) (peptide)
peptide: KSMDIVLTV
For B42, the peptide exchange yield was 50 to 75%.

B43: peptide AILDAHIEV (SEQ ID NO: 95) (peptide)
peptide: AILDAHIEV
Binder B43 has a peptide exchange yield of no less than 75%.

B44: peptide KLYSRLVYV (SEQ ID NO: 96) (peptide)
peptide: KLYSRLVYV
B44 gave a peptide exchange yield of 20 to 50%.

B45: peptide ALWWGVVTV (SEQ ID NO: 97) (peptide)
peptide: ALWWGVVTV
notes: also called ALWWGWTV
In the case of B45, the peptide exchange yield is reported as 20 to 50%.

B46: peptide AMNGKSFSV (SEQ ID NO: 98) (peptide)
peptide: AMNGKSFSV
For B46, the peptide exchange yield was 20 to 50%.

B47: peptide KLLEVDLDTV (SEQ ID NO: 99) (peptide)
peptide: KLLEVDLDTV
Binder B47 has a peptide exchange yield of 50 to 75%.

B48: peptide SLDDFLATA (SEQ ID NO: 100) (peptide)
peptide: SLDDFLATA
Binder B48 has a peptide exchange yield of 50 to 75%.

B49: peptide GLSEGHTFQV (SEQ ID NO: 101) (peptide)
peptide: GLSEGHTFQV
For B49, the peptide exchange yield was 50 to 75%.

B50: peptide KILVSLIEV (SEQ ID NO: 102) (peptide)
peptide: KILVSLIEV
B50 showed a peptide exchange yield of 50 to 75%.

B51: peptide FLFGYPKRL (SEQ ID NO: 103) (peptide)
peptide: FLFGYPKRL
B51 was tested, and the peptide exchange yield was 20 to 50%.

Reference: patent US20230212244A1 (IMMATICS BIOTECHNOLOGIES, published 2023)
